Reference: patent US20240325575A1 (WHITEHEAD INSTITUTE FOR BIOMEDICAL RESEARCH, published 2024)
Values belong to the binder of their own block, whether it stands above or below them.

Tests used:
[1] = target: T1, CD11b (mouse, on the CD11b+ mutuDC dendritic cell line and on myeloid cells in vivo) (mouse, UniProt P05555 17-1153); assay: FACS, CD11b+ mutuDC dendritic cell line stained in vitro with Alexa647-labeled DC13 monomer or dimer; reference DC13 monomer
T1 construct: whole, on cells; On cells CD11b is paired with CD18
Protocol: (§1) FIGS. 3A-3D (FIGS. 3A-3B) show dimers that are able to stain their targets with increased efficiency compared to their corresponding monomers; for FIG. 3A: cells were stained in vitro with the indicated concentrations of Alexa647-labeled VHH monomers or dimers; for FIG. 3B: equal amount of DC8 monomer and DC8-dimer is injected IV. 2 h p.i., the mice are euthanized and spleens are excised for two-photon imaging. (FIG. 3C) Equal amount of DC8 with or without PEG, both equipped with Texas Red is injected IV. 3 h p.i., the mice are euthanized and spleens are excised for two-photon imaging. (FIG. 3D) Equal amount of DC8 with or without PEG (0.4 nmols), all equipped with Alexa647 is injected IV. 3 h p.i., the mice are euthanized and spleen is excised. Cells were harvested and analyzed with FACS.
(§2) Four sortase substrates were designed and synthesized for production of dimers or PEGylated VHHs (FIG. 1). The substrates either contain two bioorthogonal handles or a handle and a fluorophore. The Alexa647-labeled substrate was designed such that the reaction products could be used in FACS experiments to estimate relative in vitro binding affinities. […] For DC8 (anti Class II), splenocytes were stained with different concentrations of monomers and dimers and analyzed by FACS. […] The in vivo binding characteristics of the VHH dimers versus monomers were evaluated. […]

[2] = target: T2, Class II MHC (mouse, on splenocytes and lymphoid organs) (mouse, UniProt P14434 24-256; P14483 28-265); assay: FACS, splenocytes stained in vitro with different concentrations of Alexa647-labeled DC8 monomer or dimer; reference DC8 monomer
T2 construct: whole, on cells; also called Class II MHC products; Class II MHC molecules
T2 sequence (MHC II alpha, looked up): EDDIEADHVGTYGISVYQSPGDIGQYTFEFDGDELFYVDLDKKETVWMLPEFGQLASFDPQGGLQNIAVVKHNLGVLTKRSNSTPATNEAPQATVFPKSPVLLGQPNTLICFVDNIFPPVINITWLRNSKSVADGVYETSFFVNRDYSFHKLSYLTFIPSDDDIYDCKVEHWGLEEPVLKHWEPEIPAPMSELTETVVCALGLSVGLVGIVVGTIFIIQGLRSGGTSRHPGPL
T2 sequence (MHC II beta, looked up): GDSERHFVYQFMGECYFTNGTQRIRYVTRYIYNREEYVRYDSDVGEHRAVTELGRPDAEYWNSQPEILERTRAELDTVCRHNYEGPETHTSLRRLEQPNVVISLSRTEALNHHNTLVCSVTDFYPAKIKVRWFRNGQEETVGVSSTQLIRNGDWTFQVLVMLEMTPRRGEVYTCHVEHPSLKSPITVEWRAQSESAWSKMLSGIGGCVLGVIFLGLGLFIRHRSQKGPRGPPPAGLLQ
Protocol: as §1, §2

[3] = target: T2, Class II MHC (mouse, on splenocytes and …); assay: FACS of spleen cells harvested 3 h after i.v. injection of Alexa647-labeled VHH into B6 mice; reference non-PEGylated DC8
Excerpt: Specificity was established by blocking the targets of these VHHs by introduction of unlabeled VHHs as competitors prior to imaging. […] To further confirm the specificity of the dimers in the absence of competing VHHs, MHC II^{-/-} and CD11b^{-/-} mice were imaged. No PET signals were detected in lymphoid organs, further confirming the specificity of both dimers (FIGS. 4E-4G). […] These experiments helped set the stage to explore ability of VHH dimers to image tumors. Two types of tumors were imaged with the developed bivalent VHHs by engraftment of mice with the B16 melanoma or the pancreatic tumor cell line panc02. Both the dimers readily detected the lymphoid organs as well as the B16 melanoma tumor or the panc02 graft. Upon excision, the panc-tumors were no more than ˜1-2 mm in diameter, showing the method to be sensitive. Postmortem biodistribution analysis correlated well with the FACS and two-photon results as well (FIGS. 5A-5B). It was examined whether circulatory half-life could be manipulated to further improve the signal to noise ratio. PEGylation of VHHs results in increased circulatory half-life, where the increase correlates with the size of the attached PEG group^{[15]}. VHHs sortagged with substrate 2 or 3 were reacted with DBCO-functionalized PEG (5 kDa, 10 kDa or 20 kDa) to yield the final PEGylated VHHs (FIGS. 2E-2F). B6 mice received 5 μg of PEGylated VHH and were euthanized 3 h later, followed by dissection of lymph nodes and spleen for FACS and two-photon microscopy.

T1 sequence (P05555 17-1153): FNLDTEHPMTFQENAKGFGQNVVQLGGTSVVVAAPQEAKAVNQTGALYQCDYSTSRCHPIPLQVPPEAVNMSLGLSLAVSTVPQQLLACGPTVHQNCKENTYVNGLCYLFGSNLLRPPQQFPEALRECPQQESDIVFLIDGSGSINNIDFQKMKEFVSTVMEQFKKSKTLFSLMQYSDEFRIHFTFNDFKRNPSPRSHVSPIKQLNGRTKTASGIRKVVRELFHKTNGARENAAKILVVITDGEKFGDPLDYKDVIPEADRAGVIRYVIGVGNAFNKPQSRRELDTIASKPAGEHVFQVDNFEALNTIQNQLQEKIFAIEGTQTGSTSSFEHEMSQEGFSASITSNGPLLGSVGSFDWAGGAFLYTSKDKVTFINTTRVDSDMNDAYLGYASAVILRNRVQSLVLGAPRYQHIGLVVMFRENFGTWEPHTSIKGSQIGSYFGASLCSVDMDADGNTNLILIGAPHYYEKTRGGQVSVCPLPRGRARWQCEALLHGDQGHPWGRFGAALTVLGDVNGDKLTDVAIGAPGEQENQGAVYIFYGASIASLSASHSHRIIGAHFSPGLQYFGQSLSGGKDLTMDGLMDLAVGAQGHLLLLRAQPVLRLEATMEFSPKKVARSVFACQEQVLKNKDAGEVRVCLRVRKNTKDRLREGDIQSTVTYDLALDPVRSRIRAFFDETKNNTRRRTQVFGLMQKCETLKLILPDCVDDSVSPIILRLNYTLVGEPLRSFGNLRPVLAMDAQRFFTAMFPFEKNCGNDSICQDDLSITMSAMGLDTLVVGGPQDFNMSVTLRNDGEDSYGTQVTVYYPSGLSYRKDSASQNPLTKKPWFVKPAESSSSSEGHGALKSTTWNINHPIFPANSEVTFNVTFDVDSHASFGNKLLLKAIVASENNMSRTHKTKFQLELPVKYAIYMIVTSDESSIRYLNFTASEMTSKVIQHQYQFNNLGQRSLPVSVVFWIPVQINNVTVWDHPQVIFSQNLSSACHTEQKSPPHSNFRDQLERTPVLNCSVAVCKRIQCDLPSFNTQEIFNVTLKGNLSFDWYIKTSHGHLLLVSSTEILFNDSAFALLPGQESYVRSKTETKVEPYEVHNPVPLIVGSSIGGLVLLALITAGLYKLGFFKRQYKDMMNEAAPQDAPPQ

- fold better binding than the corresponding monomer [1]: ~2.3 fold
B1: DC13 dimer (bivalent anti CD11b VHH, two DC13 joined via their C-termini by sortase and DBCO-azide click chemistry) (VHH)
VHH 1: QVQLQESGGGLVQTGGSLRLSCAASGVDFNWYSMGWFRQAPGKEREYVASIDQGGELDYAISVKGRFTISRDNAKNMVYLQMNSLKPEDTAVYYCAADFSGRGASNPDKYKYWGQGTQVTVSS
VHH 2: B1 VHH 1
modifications: C-terminal (Gly)3 continues as -PEG12-Cys(Alexa647, Texas Red or TCO/18F-tetrazine)-PEG5-Lys(azide); the azide is clicked to the DBCO of the other chain; C-terminal Cys carries maleimide-DBCO, clicked to the azide of the other chain
notes: Label differs by assay (Alexa647, 18F); also called DC13-dimer-Alexa647; 18F-DC13 dimer

- fold better binding than the corresponding monomer [2]: ~3.3 fold
B2: DC8 dimer (bivalent anti Class II MHC VHH, two DC8 joined via their C-termini by sortase and DBCO-azide click chemistry) (VHH)
VHH 1: QVQLQESGGGLVQPGGSLRLSCTASGFTFSTYYMSWVRKAPGKGPEWVSVMNSSGGDTRYADFVKGRFTISRDNAKNTLYLQMNSLKPEDTALYYCAQGRSDIYPTFTRGQGTQVTVSS
VHH 2: B2 VHH 1
modifications: C-terminal (Gly)3 continues as -PEG12-Cys(Alexa647, Texas Red or TCO/18F-tetrazine)-PEG5-Lys(azide); the azide is clicked to the DBCO of the other chain; C-terminal Cys carries maleimide-DBCO, clicked to the azide of the other chain
notes: Label differs by assay (Alexa647, Texas Red, 18F); also called 18F-DC8 dimer; anti Class II MHC dimer

- percent increase in staining versus non-PEGylated DC8 [3]: ~100%
B3: DC8-alexa647-PEG-10 kDa (site-specifically PEGylated DC8) (VHH)
VHH: B2 VHH 1
modifications: C-terminal (Gly)3 continues as -PEG12-Cys(Alexa647, Texas Red or TCO/18F-tetrazine)-PEG5-Lys(azide); the azide is clicked to DBCO-PEG 10 kDa
notes: Alexa647 form used for FACS, 18F form for PET and biodistribution; also called 10 kDa PEG-conjugated DC8; PEGylated DC8-Alexa647

- percent increase in staining versus non-PEGylated DC8 [3]: ~30%
B4: DC8-alexa647-PEG-5 kDa (site-specifically PEGylated DC8) (VHH)
VHH: B2 VHH 1
modifications: C-terminal (Gly)3 continues as -PEG12-Cys(Alexa647, Texas Red or TCO/18F-tetrazine)-PEG5-Lys(azide); the azide is clicked to DBCO-PEG 5 kDa
notes: Alexa647 form used for FACS, 18F form for PET and biodistribution; also called 5 kDa PEG-conjugated DC8; PEGylated DC8-Alexa647

- percent increase in staining versus non-PEGylated DC8 [3]: ~220%
B5: DC8-Alexa647-PEG-20 kDa (site-specifically PEGylated DC8) (VHH)
VHH: B2 VHH 1
modifications: C-terminal (Gly)3 continues as -PEG12-Cys(Alexa647, Texas Red or TCO/18F-tetrazine)-PEG5-Lys(azide); the azide is clicked to DBCO-PEG 20 kDa
notes: Alexa647 form used for FACS, 18F form for PET and biodistribution; also called 20 kDa PEG-conjugated DC8; PEGylated DC8-Alexa647
